Experiment [1] concerns the target hPF4/heparin complex (human) (UniProt P02776). The experiment in a line: ELISA, wells coated with hPF4 with or without heparin. Background: In an ELISA, binding on a coated surface is turned into a signal by an enzyme label.
Experiment [2] has the same target. Kind of experiment: ELISA (A405), KKO below 0.14 micrograms per milliliter.
Experiment [3] addresses platelet Fc receptor Fc-gamma RIIA (human) (UniProt P12318). Kind of experiment: cell-based or functional assay.
UniProt P12318, sequence (P12318 34-317, form in doubt): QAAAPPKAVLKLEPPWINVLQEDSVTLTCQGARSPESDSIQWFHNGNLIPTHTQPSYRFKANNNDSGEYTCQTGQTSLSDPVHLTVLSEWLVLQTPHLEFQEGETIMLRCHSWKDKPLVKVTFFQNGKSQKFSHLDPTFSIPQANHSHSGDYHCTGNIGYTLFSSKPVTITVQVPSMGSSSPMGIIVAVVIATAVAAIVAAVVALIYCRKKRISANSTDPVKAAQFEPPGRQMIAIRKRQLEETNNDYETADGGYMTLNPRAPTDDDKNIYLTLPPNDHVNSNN
In experiment [4] the target is hPF4/heparin complex (human) (UniProt P02776). Kind of experiment: cell-based or functional assay.
Experiment [5] shares this target. Kind of experiment: ELISA, wells coated with hPF4/heparin complex.

Where only a bound is given, the exact number is not on record here.

UniProt P02776, sequence (P02776 32-101, one chain of several): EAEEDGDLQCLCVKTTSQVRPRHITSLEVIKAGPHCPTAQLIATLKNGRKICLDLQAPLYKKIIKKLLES

murine monoclonal antibody KKO: the A405 ratio to hPF4/heparin complex versus hPF4 alone in experiment [1] was more than 30. Moreover, in experiment [2], the ratio of binding to PF4/heparin complex vs. binding to PF4 alone was more than 400. The 14C-serotonin release induced by KKO in the presence of the FcγRIIA-specific mAb IV.3 in experiment [3] is less than 5 % release. The KKO concentration required to initiate 14C-serotonin release (micrograms per milliliter) in experiment [4] was more than 180. Besides, the EC50 (as a rule, the concentration giving half of the maximal effect) in experiment [5] is 0.036 µg/mL.
